The record followed here is paper PMC2816671 (2010).

The target of the assay is von Willebrand factor (Homo sapiens, UniProt P04275). Briefly: Eu-labelled ligand solid-phase equilibrium binding.

B1: plasminogen (protein)
chain: EPLDDYVNTQGASLFSVTKKQLGAGSIEECAAKCEEDEEFTCRAFQYHSKEQQCVIMAENRKSSIIIRMRDVVLFEKKVYLSECKTGNGKNYRGTMSKTKNGITCQKWSSTSPHRPRFSPATHPSEGLEENYCRNPDNDPQGPWCYTTDPEKRYDYCDILECEEECMHCSGENYDGKISKTMSGLECQAWDSQSPHAHGYIPSKFPNKNLKKNYCRNPDRELRPWCFTTDPNKRWELCDIPRCTTPPPSSGPTYQCLKGTGENYRGNVAVTVSGHTCQHWSAQTPHTHNRTPENFPCKNLDENYCRNPDGKRAPWCHTTNSQVRWEYCKIPSCDSSPVSTEQLAPTAPPELTPVVQDCYHGDGQSYRGTSSTTTTGKKCQSWSSMTPHRHQKTPENYPNAGLTMNYCRNPDADKGPWCFTTDPSVRWEYCNLKKCSGTEASVVAPPPVVLLPDVETPSEEDCMFGNGKGYRGKRATTVTGTPCQDWAAQEPHRHSIFTPETNPRAGLEKNYCRNPDGDVGGPWCYTTNPRKLYDYCDVPQCAAPSFDCGKPQVEPKKCPGRVVGGCVAHPHSWPWQVSLRTRFGMHFCGGTLISPEWVLTAAHCLEKSPRPSSYKVILGAHQEVNLEPHVQEIEVSRLFLEPTRKDIALLKLSSPAVITDKVIPACLPSPNYVVADRTECFITGWGETQGTFGAGLLKEAQLPVIENKVCNRYEFLNGRVQSTELCAGHLAGGTDSCQGDSGGPLVCFEKDKYILQGVTSWGLGCARPNKPGVYVRVSRFVTWIEGVMRNN
Consider B1, for which the affinity, expressed as Kd, was 100 nM.

B2: plasmin (protein)
chain: VVGGCVAHPHSWPWQVSLRTRFGMHFCGGTLISPEWVLTAAHCLEKSPRPSSYKVILGAHQEVNLEPHVQEIEVSRLFLEPTRKDIALLKLSSPAVITDKVIPACLPSPNYVVADRTECFITGWGETQGTFGAGLLKEAQLPVIENKVCNRYEFLNGRVQSTELCAGHLAGGTDSCQGDSGGPLVCFEKDKYILQGVTSWGLGCARPNKPGVYVRVSRFVTWIEGVMRNN
B2 came in with a Kd of 160 nM.

B3: active-site blocked plasmin (protein)
chain 1: KVYLSECKTGNGKNYRGTMSKTKNGITCQKWSSTSPHRPRFSPATHPSEGLEENYCRNPDNDPQGPWCYTTDPEKRYDYCDILECEEECMHCSGENYDGKISKTMSGLECQAWDSQSPHAHGYIPSKFPNKNLKKNYCRNPDRELRPWCFTTDPNKRWELCDIPRCTTPPPSSGPTYQCLKGTGENYRGNVAVTVSGHTCQHWSAQTPHTHNRTPENFPCKNLDENYCRNPDGKRAPWCHTTNSQVRWEYCKIPSCDSSPVSTEQLAPTAPPELTPVVQDCYHGDGQSYRGTSSTTTTGKKCQSWSSMTPHRHQKTPENYPNAGLTMNYCRNPDADKGPWCFTTDPSVRWEYCNLKKCSGTEASVVAPPPVVLLPDVETPSEEDCMFGNGKGYRGKRATTVTGTPCQDWAAQEPHRHSIFTPETNPRAGLEKNYCRNPDGDVGGPWCYTTNPRKLYDYCDVPQCAAPSFDCGKPQVEPKKCPGR
chain 2: B2 chain
modifications: Pefabloc (AEBSF) active-site blocked
As to B3, the equilibrium dissociation constant (Kd) is 270 nM.
